Measurements: the supplement of paper PMC10201428
± gives the standard deviation of the averaged measurements.

Experiments:
[1] = system: VchCAST RNA-guided transposition machinery (E. coli BL21(DE3) host, lacZ target); assay: relative integration efficiency (T-LR orientation) vs wild-type transposon end (log2 (normalized fold change)); transposon end mutated: right end (5 bp flank + 75 bp right end); higher = more efficient transposition
Procedure, shortened: (§1)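 A T7-driven effector plasmid encoding a CRISPR array, tniQ-cas8-cas7-cas6 and tnsA-tnsB-tnsC was co-transformed into E. coli BL21(DE3) together with a pUC57 mini-transposon donor holding barcoded pools of 1549 left-end or 1849 right-end variants. Transformants were plated with 0.1 mM IPTG at 37°C for 18 h. Illumina sequencing of PCR-amplified input plasmids and genomic integration junctions gave barcode abundances, and relative integration efficiency is their output/input fold change, normalised to reference barcodes and log-transformed.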

[2] = system: VchCAST RNA-guided transposition machinery (E. coli BL21(DE3) host, lacZ target); assay: relative integration efficiency (T-RL orientation) vs wild-type transposon end (log2 (normalized fold change)); transposon end mutated: right end (5 bp flank + 75 bp right end); higher = more efficient transposition
Procedure, shortened: as §1

| Sequence | relative integration efficiency (log2) [1] | relative integration efficiency (log2) [2] |
| --- | --- | --- |
| ACATTTGTTGATACAACCATAAAATGATACGGCCACCCATAAATTGATACGGCTCACACCCATAAATTGATAGGTACTCTGATCATAGTCAGACCAACATTGCTACGACCCGTATTCGCACCGACAC | 0.469 ± 0.35 | -1.54 ± 0.28 |
| ACATTTGTTGATACAACCATAAAATGATACGTACACCCATAAATTGATAATTATCACACCCATAAATTGATATTGCCTCTGATCATAGTCAGACCAACATTGCTACGACCCGTATTCGCACCGACAC | -0.504 ± 0.23 | -0.82 ± 0.068 |
| ACATTTGTTGATACAACCATAAAATGATACTTACACCCATAAATTGATACTTATCACACCCATAAATTGATAGTGCCTCTGATCATAGTCAGACCAACATTGCTACGACCCGTATTCGCACCGACAC | -0.0216 ± 0.18 | -0.987 ± 0.027 |
| ACATTTGTTGATACAACCATAAAATGATATAATCACCCATAAATTGATAATTATCACACCCATAAATTGATATTGCCTCTGATCATAGTCAGACCAACATTGCTACGACCCGTATTCGCACCGACAC | -0.788 ± 0.69 | -0.575 ± 0.093 |
| ACATTTGTTGATACAACCATAAAATGATATAATCACCCATAAATTGATATAATTCACACCCATAAATTGATAAACGCTCTGATCATAGTCAGACCAACATTGCTACGACCCGTATTCGCACCGACAC | 0.045 ± 0.14 | -1.01 ± 0.15 |
| ACATTTGTTGATACAACCATAAAATGATATATACACCCATAAATTGATAATTATCACACCCATAAATTGATATTGCCTCTGATCATAGTCAGACCAACATTGCTACGACCCGTATTCGCACCGACAC | 0.0362 ± 0.23 | -0.131 ± 0.097 |
| ACATTTGTTGATACAACCATAAAATGATATTTACACCCATAAATTGATATTTATCACACCCATAAATTGATAATGCCTCTGATCATAGTCAGACCAACATTGCTACGACCCGTATTCGCACCGACAC | -0.16 ± 0.048 | -0.257 ± 0.19 |
| ACATTTGTTGATACAACCATAAAATGATCACCCATAAATTGATAATTATCACACCCATAAATTGATATTGCCTCTGATCATAGTCAGACCAACATTGCTACGACCCGTATTCGCACCGACACTGACT | -0.722 ± 0.27 | -4.08 ± 0.34 |
| ACATTTGTTGATACAACCATAAAATGATCATTACACCCATAAATTGATAATTATCACACCCCATTTAACTATAACGCTCTGATCATAGTCAGACCAACATTGCTACGACCCGTATTCGCACCGACAC | 1.74 ± 0.078 | -2.04 ± 0.29 |
| ACATTTGTTGATACAACCATAAAATGATCATTACACCCATAAATTGATAATTATCCCACCCAATTTAACTATAACGCTCTGATCATAGTCAGACCAACATTGCTACGACCCGTATTCGCACCGACAC | 2.27 ± 0.065 | -1.52 ± 0.18 |
| ACATTTGTTGATACAACCATAAAATGATCATTACACCCATAAATTGATAATTATCCCACCCCATTTAACTATAACGCTCTGATCATAGTCAGACCAACATTGCTACGACCCGTATTCGCACCGACAC | 1.87 ± 0.062 | -1.84 ± 0.31 |
| ACATTTGTTGATACAACCATAAAATGATCATTACACCCATAAATTGATCATTATCACACCCATAAATTGATCTTGCCTCTGATCATAGTCAGACCAACATTGCTACGACCCGTATTCGCACCGACAC | -0.7415 ± 0.00084 | -1.214 ± 0.0037 |
| ACATTTGTTGATACAACCATAAAATGATCATTACACCCATCAATTGATAATTATCACACCCAATTTAACTATAACGCTCTGATCATAGTCAGACCAACATTGCTACGACCCGTATTCGCACCGACAC | 0.697 ± 0.18 | -2.98 ± 0.5 |
| ACATTTGTTGATACAACCATAAAATGATCATTACACCCATCAATTGATAATTATCACACCCCATTTAACTATAACGCTCTGATCATAGTCAGACCAACATTGCTACGACCCGTATTCGCACCGACAC | 0.914 ± 0.34 | -2.76 ± 0.2 |
| ACATTTGTTGATACAACCATAAAATGATCATTACACCCATCAATTGATAATTATCCCACCCAATTTAACTATAACGCTCTGATCATAGTCAGACCAACATTGCTACGACCCGTATTCGCACCGACAC | 0.874 ± 0.13 | -2.65 ± 0.42 |
| ACATTTGTTGATACAACCATAAAATGATCATTACACCCATCAATTGATAATTATCCCACCCCATTTAACTATAACGCTCTGATCATAGTCAGACCAACATTGCTACGACCCGTATTCGCACCGACAC | 1.04 ± 0.071 | -2.65 ± 0.32 |
| ACATTTGTTGATACAACCATAAAATGATCATTACCCCCATAAATTGATAATTATCACACCCAATTTAACTATAACGCTCTGATCATAGTCAGACCAACATTGCTACGACCCGTATTCGCACCGACAC | 1.59 ± 0.045 | -1.95 ± 0.25 |
| ACATTTGTTGATACAACCATAAAATGATCATTACCCCCATAAATTGATAATTATCACACCCCATTTAACTATAACGCTCTGATCATAGTCAGACCAACATTGCTACGACCCGTATTCGCACCGACAC | 2.423 ± 0.013 | -1.23 ± 0.22 |

| Sequence | relative integration efficiency (log2) [1] | relative integration efficiency (log2) [2] |
| --- | --- | --- |
| ACATTTGTTGATACAACCATAAAATGATCATTACCCCCATAAATTGATAATTATCCCACCCAATTTAACTATAACGCTCTGATCATAGTCAGACCAACATTGCTACGACCCGTATTCGCACCGACAC | 1.58 ± 0.2 | -2.11 ± 0.51 |
| ACATTTGTTGATACAACCATAAAATGATCATTACCCCCATAAATTGATAATTATCCCACCCCATTTAACTATAACGCTCTGATCATAGTCAGACCAACATTGCTACGACCCGTATTCGCACCGACAC | 1.86 ± 0.02 | -1.91 ± 0.36 |
| ACATTTGTTGATACAACCATAAAATGATCATTACCCCCATCAATTGATAATTATCACACCCAATTTAACTATAACGCTCTGATCATAGTCAGACCAACATTGCTACGACCCGTATTCGCACCGACAC | -0.291 ± 0.3 | -3.35 ± 0.24 |
| ACATTTGTTGATACAACCATAAAATGATCATTACCCCCATCAATTGATAATTATCACACCCCATTTAACTATAACGCTCTGATCATAGTCAGACCAACATTGCTACGACCCGTATTCGCACCGACAC | -0.533 ± 0.18 | -3.74 ± 0.21 |
| ACATTTGTTGATACAACCATAAAATGATCATTACCCCCATCAATTGATAATTATCCCACCCAATTTAACTATAACGCTCTGATCATAGTCAGACCAACATTGCTACGACCCGTATTCGCACCGACAC | 0.227 ± 0.14 | -3.71 ± 0.29 |
| ACATTTGTTGATACAACCATAAAATGATCATTACCCCCATCAATTGATAATTATCCCACCCCATTTAACTATAACGCTCTGATCATAGTCAGACCAACATTGCTACGACCCGTATTCGCACCGACAC | -0.338 ± 0.22 | -3.97 ± 0.23 |
| ACATTTGTTGATACAACCATAAAATGATCATTCACCCATAAATTGATAATTATCACACCCACATTTAACTATAACGCTCTGATCATAGTCAGACCAACATTGCTACGACCCGTATTCGCACCGACAC | 0.654 ± 0.11 | -3.25 ± 0.26 |
| ACATTTGTTGATACAACCATAAAATGATCATTCACCCCTAAATTGATAATTATCACACCCACATTTAACTATAACGCTCTGATCATAGTCAGACCAACATTGCTACGACCCGTATTCGCACCGACAC | -0.712 ± 0.069 | -4.31 ± 0.082 |
| ACATTTGTTGATACAACCATAAAATGATCCGGACACCCATAAATTGATAATTATCACACCCATAAATTGATATTGCCTCTGATCATAGTCAGACCAACATTGCTACGACCCGTATTCGCACCGACAC | -0.898 ± 0.013 | -1.23 ± 0.15 |
| ACATTTGTTGATACAACCATAAAATGATCCGGCACAAACGCCCGGTCGCCGGCGACACAAACGCCCGGTCGCGGTAAGAGGATCATAGTCAGACCAACATTGCTACGACCCGTATTCGCACCGACAC | 0.37 ± 0.064 | -2.68 ± 0.12 |
| ACATTTGTTGATACAACCATAAAATGATCCGGCCACCCATAAATTGATCCGGCTCACACCCATAAATTGATCGGTACTCTGATCATAGTCAGACCAACATTGCTACGACCCGTATTCGCACCGACAC | -0.827 ± 0.14 | -2.73 ± 0.41 |
| ACATTTGTTGATACAACCATAAAATGATCCTTACACCCATAAATTGATAATTATCACACCCATAAATTGATATTGCCTCTGATCATAGTCAGACCAACATTGCTACGACCCGTATTCGCACCGACAC | -0.545 ± 0.46 | -1.03 ± 0.14 |
| ACATTTGTTGATACAACCATAAAATGATTATTACACCCATAAATTGATAATAATGACACCGAATTTAACTATAACGCTCTGATCATAGTCAGACCAACATTGCTACGACCCGTATTCGCACCGACAC | 2.95 ± 0.061 | -0.616 ± 0.36 |
| ACATTTGTTGATACAACCATAAAATGATTATTACACCCATAAATTGATAATGATGACACCGAATTTAACTATAACGCTCTGATCATAGTCAGACCAACATTGCTACGACCCGTATTCGCACCGACAC | 2.38 ± 0.12 | -1.31 ± 0.35 |
| ACATTTGTTGATACAACCATAAAATGATTATTACACCCATAAATTGATAATTGTGACACCGAATTTAACTATAACGCTCTGATCATAGTCAGACCAACATTGCTACGACCCGTATTCGCACCGACAC | 2.3 ± 0.095 | -1.18 ± 0.23 |
| ACATTTGTTGATACAACCATAAAATGATTATTACACCCATAAATTGATTATTATCACACCCATAAATTGATTTTGCCTCTGATCATAGTCAGACCAACATTGCTACGACCCGTATTCGCACCGACAC | 0.0804 ± 0.34 | -0.91 ± 0.14 |
| ACATTTGTTGATACAACCATAAAATGATTATTACACCCATTAATTGATAATTATCACACCCAATTTAACTATAACGCTCTGATCATAGTCAGACCAACATTGCTACGACCCGTATTCGCACCGACAC | 2.31 ± 0.036 | -1.4 ± 0.34 |
